One block for each binder: values may come before it.
What was measured:
[1] = molecular target: T1, human ErbB3 (human, UniProt P21860 20-1342); experiment: cell-based or functional assay
[2] = molecular target: T1, human ErbB3; experiment: cell-based or functional assay; remark: listed apart in the source
[3] = molecular target: T2, recombinant human ErbB3/Fc fusion protein (human, UniProt P21860 20-643); experiment: SPR Biacore T100, 25 C; antibody captured on anti-mouse IgG, rhErbB3-Fc injected
T2 construct: Bought (R&D Systems, Cat. No. 348-RB); the NRG1-α1 assay names Cat. No. 4518-RB instead; also called rhErbB3-Fc; rhErbB3/Fc; not shown: Fc portion of the bought fusion protein
Description: Rabbit anti-mouse IgGs (Biacore, Cat. No. BR-1008-38) were immobilized on carboxymethylated dextran CM4 sensor chips (Biacore, Cat. No. BR-1005-34) by amine coupling (BIAcore, Cat. No. BR-1000-50) using a standard coupling protocol according to vendor's instructions. The analyses were performed at 25° C., using PBS (Invitrogen, Cat. No. 14040-133) containing 0.05% surfactant P20 (Biacore, Cat. No. BR-1000-54) as running buffer.
The antibodies were captured in individual flow cells at a flow rate of 10 μl/minute. Injection time was varied for each antibody to yield an Rₘₐₓ between 30 and 60 RU. […] The dissociation phase was monitored for up to 3600 seconds. The surface was then regenerated with two 60-seconds injection of 10 mM Glycine-HCl, pH 1.7 (made from Glycine pH 1.5 (Biacore, Cat. No. BR-1003-54) and pH 2.0 (Biacore, Cat. No. BR-1003-55)) at a flow rate of […].
(§1) Kinetic parameters were determined using the kinetic function of the BIAevaluation software (Biacore) with double reference subtraction. Kinetic parameters for each antibody, kₐ (association rate constant), kd (dissociation rate constant) and KD (equilibrium dissociation constant) were determined.

[4] = molecular target: T2, recombinant human ErbB3/Fc fusion …; experiment: ECL competition; inhibition of NRG1-β1 binding to plate-coated rhErbB3/Fc
Description: (§2) MA2400 96-well standard binding plates (Meso Scale Discovery, Cat. No. L15XA-6) were coated with 50 μl of 0.5 μg/mL rhErbB3/Fc (R&D systems, Cat. No. 348-RB) in PBS (Invitrogen, Cat. No. 14040-133) for overnight at 4° C. with no agitation. The plates then were washed 3 times with PBS+0.1% Tween20 (Sigma P5927) and blocked with 200 μl of PBS containing 5% BSA (Sera Care Life Sciences, Cat. No. AP-4510-80) for 1.5 hour at room temperature. After washing the plates 3 times with PBS, 25 μl of the antibody dilutions were added to the plates for another hour at room temperature with agitation. […] The plates then were washed 3 times with PBS, and 150 μl of 1× read buffer (Meso Scale Discovery, Cat. No. R92TC-1) was added to each well before the plates were analyzed on a Sector® Imager 2400 (Meso Scale Discovery) instrument.

[5] = molecular target: T2, recombinant human ErbB3/Fc fusion …; experiment: ECL (MSD) competition: rhErbB3/Fc coated on the plate, antibody dilutions, then NRG1-β1 at 0.25 µg/ml; bound NRG1-β1 detected
Description: as §2

[6] = molecular target: T3, recombinant human ErbB3 monomeric protein (cleaved rhErbB3) (human, UniProt P21860 20-643, limits assumed); experiment: SPR Biacore 37 C; supernatant antibody captured on anti-human Fc, cleaved rhErbB3 injected
T3 construct: Monomer made by protease cleavage of the Fc fusion; also called Monomeric ErbB3
Description: (§3) The analyses were performed at 37° C. using PBS (Invitrogen, Catalog No. 14040-133) containing 0.05% surfactant P20 (Biacore, Catalog No. BR-1000-54) as running buffer.
(§4) The antibodies were captured in individual flow cells at a flow rate of […]. Injection time was varied for each antibody to yield an Rₘₐₓ between 30 and 60 RU. […] The dissociation phase was monitored for up to 1200 seconds. The surface was then regenerated with two 60 second injections of Glycine pH 2.25 (made from Glycine pH 2.0 (Biacore, Catalog No. BR-1003-55) and pH 2.5 (Biacore, Catalog No. BR-1003-56)) at […].
as §1

[7] = molecular target: T3, recombinant human ErbB3 monomeric …; experiment: SPR Biacore 37 C; purified antibody captured on anti-human Fc, cleaved rhErbB3 0.3125-5.0 nM
Description: as §3, §4
The binding affinities and kinetics of certain purified monoclonal antibodies were also determined. To further characterize certain antibodies, the surface plasmon resonance experiments described above were conducted using concentrations of cleaved rhErbB3 between 0.3125 nM and 5.0 nM (a 2-fold serial dilution).

- Kd [6]: 0.553 nM
- koff [6]: 0.00441 s⁻¹
- kon [6]: 7.98e+06 M⁻¹ s⁻¹
B6: Sh24C05-47 (antibody, human IgG1, kappa, V domains shown)
VH: QVQLVESGGGVVQPGRSLRLSCAASGFTFSDYAMSWVRQAPGKGLEWVATISDGGTYTYYPDNVKGRFTISRDNSKNTLYLQMSSLRAEDTAVYYCAREWGDYDGFDYWGQGTLVTVSS
VL: DIQMTQSPSSLSASVGDRVTITCRASQEISGYLSWYQQKPGKAPKLLIYAASTLDSGVPSRFSGSGSGTDFTLTISSLQPEDFATYYCLQYDSYPYTFGQGTKLEIKR
notes: Humanized, human IgG1/kappa

- Kd [6]: 0.562 nM
- koff [6]: 0.0049 s⁻¹
- kon [6]: 8.72e+06 M⁻¹ s⁻¹
B7: Sh24C05-48 (antibody, human IgG1, kappa)
heavy: not shown
light: DIQMTQSPSSLSASVGDRVTITCRASQEISGYLSWYQQKPGKAPKLLIYAASTLDSGVPSRFSGSGSGTDFTLTISSLQPEDFATYYCLQYDSYPYTFGQGTKLEIKRTVAAPSVFIFPPSDEQLKSGTASVVCLLNNFYPREAKVQWKVDNALQSGNSQESVTEQDSKDSTYSLSSTLTLSKADYEKHKVYACEVTHQGLSSPVTKSFNRGEC
notes: Humanized, human IgG1/kappa

- Kd [6]: 0.416 nM
- koff [6]: 0.0017 s⁻¹
- kon [6]: 4.08e+06 M⁻¹ s⁻¹
B9: Sh24C05-49 (antibody, human IgG1, kappa, V domains shown)
VH: QVQLVESGGGLVKPGGSLRLSCAASGFTFSDYAMSWIRQAPGKGLEWVSTISDGGTYTYYPDNVKGRFTISRDNAKNSLYLQMNSLRAEDTAVYYCAREWGDYDGFDYWGQGTLVTVSS
VL: DIQMTQSPSSLSASVGDRVTITCRASQEISGYLSWYQQKPGKAPKLLIYAASTLDSGVPSRFSGSGSGTDFTLTISSLQPEDFATYYCLQYDSYPYTFGQGTKLEIKR
notes: Humanized, human IgG1/kappa

The next lines start with the binder.

B1: 11G01 (antibody, mouse IgG1, kappa, V domains shown)
VH: QVQLQQSDAELVKPGASVKISCKVSGYTFTDHIIHWMKQRPEQGLEWIGYIYPRDGYIKYNEKFKGKATLTADKSSSTAYMQVNSLTSEDSAVYFCARGYYYAMDYWGQGTSVTVSS
VL: DVLMTQTPLSLPVSLGDQASISCRSSQSIVHSIGNTYLEWYLQKPGQSPKLLIYKVSNRFSGVPERFSGSGSGTDFTLKISRVEAEDLGVYYCFQGSHVPFTFGSGTKLEIKR
notes: Murine IgG1/kappa, from hybridoma; also called anti-hErbB3 monoclonal antibody 11G01
- inhibition of NRG1-β1 induced phosphorylation of Akt in MCF7 and DU145 cells (ELISA) [1]: ≥ 80%
- inhibition of NRG1-β1 induced phosphorylation of ErbB3 in SKBR-3 cells (ELISA, 5 µg/ml antibody) [1]: ≥ 50%
- IC50, NRG1-β1 dependent proliferation of MCF7 cells (MTT) [2]: 1.98 nM
- Kd [3]: 0.091 nM
- koff [3]: 2.2e-05 s⁻¹
- kon [3]: 270000 M⁻¹ s⁻¹

B2: 12A07 (antibody, mouse IgG1, kappa, V domains shown)
VH: QVQLLQPGAELVRPGTSVKLSCKTSGYTFSSYWMHWVKQRPGQGLEWIGMIDPSDVYTNYNPKFKGKATLTVDTSSSTAYMQLSSLTSEDSAVYYCARNYSGDYWGQGTTLTVSS
VL: DVLMTQIPLSLPVSLGDQASISCRSSQSIVHSNGNTYLEWYLQKPGQSPKLLIYKVSNRFSGVPDRFSGSGSGTDFTLKISRVEAEDLGVYYCFQGSYVPWTFGGGTKLEIKR
notes: Murine IgG1/kappa, from hybridoma; also called anti-hErbB3 monoclonal antibody 12A07
- inhibition of NRG1-β1 induced phosphorylation of Akt in MCF7 and DU145 cells (ELISA) [1]: ≥ 80%
- inhibition of NRG1-β1 induced phosphorylation of ErbB3 in SKBR-3 cells (ELISA, 5 µg/ml antibody) [1]: ≥ 50%
- IC50, NRG1-β1 dependent proliferation of MCF7 cells (MTT) [2]: 0.74 nM
- IC50 [4]: 0.235 nM
- Kd [3]: 0.3 nM
- koff [3]: 0.00019 s⁻¹
- kon [3]: 620000 M⁻¹ s⁻¹
- IC50 (read off the curve) [5]: ~0.2 nM

B3: 22A02 (antibody, mouse IgG1, kappa, V domains shown)
VH: QVQLQQPGAELVRPGTSVKLSCKASGYTFTNYWMHWVKQRPGQGLEWIGMIDPSDSYTNYNPKFKGKATLTVDTSSSTAYMQLSSLTSEDSAVYYCARNYSGDYWGQGTTLTVSS
VL: DVLMTQTPLSLPVSLGDQASISCRSSQSIVHSNGNTYLEWYLQKPGQSPKLLIYKVSNRFSGVPDRFSGSGSGTDFTLKISRVEAEDLGVYYCFQGSYVPWTFGGGTKLEIKR
notes: Murine IgG1/kappa, from hybridoma; also called anti-hErbB3 monoclonal antibody 22A02
- inhibition of NRG1-β1 induced phosphorylation of Akt in MCF7 and DU145 cells (ELISA) [1]: ≥ 80%
- inhibition of NRG1-β1 induced phosphorylation of ErbB3 in SKBR-3 cells (ELISA, 5 µg/ml antibody) [1]: ≥ 50%
- IC50, NRG1-β1 dependent proliferation of MCF7 cells (MTT) [2]: 1.62 nM
- IC50 [4]: 0.242 nM
- Kd [3]: 0.32 nM
- koff [3]: 0.00022 s⁻¹
- kon [3]: 700000 M⁻¹ s⁻¹
- IC50 (read off the curve) [5]: ~0.2 nM

B4: Sh24C05-25 (antibody, human IgG1, kappa, V domains shown)
VH: QVQLVESGGGLVKPGGSLRLSCAASGFTFSDYAMSWIRQAPGKGLEWVSTISDGGTYTYYPDNVKGRFTISRDNAKNSLYLQMNSLRAEDTAVYYCAREWGDYDGFDYWGQGTLVTVSS
VL: DIQMTQSPSSLSASVGDRVTITCRASQEISGYLSWFQQKPGKAPKSLIYAASTLDSGVPSRFSGSGSGTDFTLTISSLQPEDFATYYCLQYDSYPYTFGQGTKLEIKR
notes: Humanized, human IgG1/kappa
- Kd [6]: 0.175 nM
- koff [6]: 0.000459 s⁻¹
- kon [6]: 2.63e+06 M⁻¹ s⁻¹
- Kd [7]: 0.13 nM
- koff [7]: 0.0005 s⁻¹
- kon [7]: 4e+06 M⁻¹ s⁻¹

B5: Sh24C05-17 (antibody, human IgG1, kappa, V domains shown)
VH: QVQLVESGGGVVQPGRSLRLSCAASGFTFSDYAMSWVRQAPGKGLEWVATISDGGTYTYYPDNVKGRFTISRDNSKNTLYLQMSSLRAEDTAVYYCAREWGDYDGFDYWGQGTLVTVSS
VL: DIQMTQSPSSLSASVGDRVTITCRASQEISGYLSWLQQKPGGAIKRLIYAASTLDSGVPSRFSGSGSGSDYTLTISSLQPEDFATYYCLQYDSYPYTFGQGTKLEIKR
notes: Humanized, human IgG1/kappa
- Kd [6]: 0.15 nM
- koff [6]: 0.000417 s⁻¹
- kon [6]: 2.79e+06 M⁻¹ s⁻¹

B8: Sh24C05-31 (antibody, human IgG1, kappa, V domains shown)
VH: QVQLVESGGGLVKPGGSLRLSCAASGFTFSDYAMSWIRQAPGKGLEWVSTISDGGTYTYYPDNVKGRFTISRDNAKNSLYLQMNSLRAEDTAVYYCAREWGDYDGFDYWGQGTLVTVSS
VL: DIQMTQSPSSLSASVGDRVTITCRASQEISGYLSWYQQKPGKAPKRLIYAASTLDSGVPSRFSGSGSGTEFTLTISSLQPEDFATYYCLQYDSYPYTFGQGTKLEIKR
notes: Humanized, human IgG1/kappa
- Kd [6]: 0.0865 nM
- koff [6]: 0.000292 s⁻¹
- kon [6]: 3.47e+06 M⁻¹ s⁻¹
- Kd [7]: 0.063 nM
- koff [7]: 0.00028 s⁻¹
- kon [7]: 4.7e+06 M⁻¹ s⁻¹

B10: 18H02 (antibody, mouse IgG1, kappa, V domains shown)
VH: QIQLVQSGPELKKPGEAVKISCKSSGYTFTTYGMSWVKQAPGRALKWMGWINTYSGVPTYADDFKGRFAFSLESSASTAYLQINNLKNEDTATYFCARGRDGYQVAWFAYWGQGTLVTVSA
VL: ETTVTQSPASLSMAIGDKVTIRCITSTDIDDDMNWFQQKPGEPPKLLISEGNTLRPGVPSRFSGSGYGTDFIFTIENMLSEDVADYYCLQSDNLPYTFGGGTKLEIKR
notes: Murine IgG1/kappa, from hybridoma; also called anti-hErbB3 monoclonal antibody 18H02
- inhibition of NRG1-β1 induced phosphorylation of Akt in MCF7 and DU145 cells (ELISA) [1]: ≥ 80%
- inhibition of NRG1-β1 induced phosphorylation of ErbB3 in SKBR-3 cells (ELISA, 5 µg/ml antibody) [1]: ≥ 50%
- IC50, NRG1-β1 dependent proliferation of MCF7 cells (MTT) [2]: 1 nM
- IC50 [4]: 0.346 nM
- Kd [3]: 0.091 nM
- koff [3]: 2.5e-05 s⁻¹
- kon [3]: 280000 M⁻¹ s⁻¹
- IC50 (read off the curve) [5]: ~0.3 nM

B11: Sh24C05-1 (antibody, human IgG1, kappa)
heavy: not shown
light: DIQMTQSPSSLSASLGERVSLTCRASQEISGYLSWLQQKPDGTIKRLIYAASTLDSGVPKRFSGSRSGSDYSLTIGSLESEDLADYYCLQYDSYPYTFGGGTKLEIKRTVAAPSVFIFPPSDEQLKSGTASVVCLLNNFYPREAKVQWKVDNALQSGNSQESVTEQDSKDSTYSLSSTLTLSKADYEKHKVYACEVTHQGLSSPVTKSFNRGEC
notes: Chimeric: mouse 24C05 variable regions, human IgG1/kappa constant regions; also called Chimeric 24C05
- Kd [6]: 0.178 nM
- koff [6]: 0.000448 s⁻¹
- kon [6]: 2.52e+06 M⁻¹ s⁻¹
- Kd [7]: 0.14 nM
- koff [7]: 0.00044 s⁻¹
- kon [7]: 3.5e+06 M⁻¹ s⁻¹
